Data taken from paper PMC10252837, “A Novel Time-Resolved Fluorescence Resonance Energy Transfer Assay for the Discovery of Small-Molecule Inhibitors of HIV-1 Tat-Regulated Transcription” (International Journal of Molecular Sciences, 2023).
Square brackets hold non-standard residues; d marks the D form. Ends that are not written are not given here. Peptide text beside a SMILES is read from it. * marks the point of attachment. Biotin = O=C1N[C@H]2[C@H](CS[C@H]2CCCCC(=O)*)N1

Legend:
HIV-1 = settings: read-out: IC50 of HIV-1 infection; cited from earlier work
[1] = target: T1, Tat (ARM)-TAR RNA interaction (Human immunodeficiency virus type 1 group M subtype B, UniProt P04608); test: TR-FRET assay with biotinylated ARM and Eu-conjugated StAV; assay type: binding, HIV-1; settings: five-thousand-fold excess
T1 construct: purchased Peptron, Daejeon, Republic of Korea (custom peptide synthesis); host or cells: chemical synthesis
From the text: Initially, a simplified TR-FRET assay was designed to determine the interaction of Tat (ARM)-TAR RNA using 5′-cyanine 5 (Cy5)-labeled TAR RNA (31 nt) and Tat (ARM) tagged with either biotin, HA, FLAG, or FITC; this was based on size-minimalized analytes to focus on the essential biochemical relevance of the Tat-TAR RNA interaction. After Tat (ARM) binds to the TAR RNA, each Eu-conjugated antibody recognized the cognate tag on the Tat (ARM) peptide. When the reaction is irradiated with a 320 nm laser, the emissive energy from the donor Eu chelate is then transferred to the Cy5 dye-labeled to TAR RNA placed at a close distance (~10 nm), resulting in luminescence at 665 nm from Cy5 and 615 nm from Eu. A certain substance inhibiting the Tat-TAR RNA interaction causes the loss of luminescence in the sample at 665 nm emission (Figure 1A). To determine which Eu-conjugated recognizer (anti-Flag, -HA, FITC antibodies, or streptavidin) is appropriate for successfully establishing the TR-FRET assay, 20 nM of ARM tagged with each epitope and the same concentration of Cy5-labeled TAR RNA fragment were incubated with 5 nM of cognate Eu-conjugated recognizer.
StAV-Eu + + + + + + + + + + + + + + + + + + + + + + StAV-Eu + + + + + + + + + + + + […]
Bio-ARM + + + + + + + + + + + + + + + + + + + + + Biotin-ARM - + - + - + - + - + - +
Competitor BSA ARM L-22 LK-3 L-50
Figure S1. […]

[2] = test system: Tat (ARM)-TAR RNA interaction
Method: To test whether our assay is applicable for screening specific inhibitors of the Tat-TAR RNA interaction, inhibition assays were performed with known inhibitors of the Tat-TAR RNA interaction. […] A dose–response competition assay was conducted at inhibitor concentrations of 0–100 μM to determine their inhibitory curves in our assay. […] Additionally, a dose-responsive competition assay using RNA fragments was performed to validate the specificity of the assay.
Data are expressed as the mean ± SD (n = 3) compared to a control lacking an RNA competitor.
The indicated concentrations of ARM and Cy5-TAR RNA fragments were incubated in 20 μL of 1× LANCE ultra assay buffer in 384-well microtiter plates with or without inhibitor (competitor) for 30 min at 20 °C in the dark. […] The reaction was performed in a final volume of 25 μL. Small volumes of the reaction solution were added automatically using Assist-Plus (Integra Bioscience, Zisers, Switzerland). After adding all the assay components, the plates were sealed with a clear cover. The ARM-TAR RNA interaction signal was measured in an EnSight multimode plate reader (PerkinElmer) using the LANCE protocol of the time-resolved fluorescence (TRF) mode in the Kaleido software (PerkinElmer), according to the manufacturer’s protocol. Briefly, the excitation light was directed to the donor (Eu) from the Xenon flash lamp at 320 nm selected by an optical filter, and then, an integration time of 100 μs and a delay time of 70 μs were provided to remove short-lived background signals; subsequently, two emission lights were detected at 615 nm for the donor (Eu) and 665 nm for the acceptor (Cy5). The TRF was measured from the top using an excitation filter and emission monochromators in a single measurement mode. The TR-FRET output signal was expressed as the emission ratio of acceptor/donor (665/615 nm × 1000) fluorescence counts. The fold activity of the TR-FRET signal for ARM-TAR RNA interaction was calculated compared to the control reaction lacking the ARM peptide.

TAR RNA = target: TAR RNA; set-up: method as in PMID 19584251; settings: EMSA; read-out: Kd determined by EMSA; cited from earlier work
L-22 cyclic peptide = test: TR-FRET competition
L-50 cyclic peptide = test: TR-FRET competition
LK3 peptide = test: TR-FRET competition
L-51 cyclic peptide = test: TR-FRET competition
Tat (ARM), tag-free = target: T2, Tat (ARM), tag-free (HIV-1 NL4-3, UniProt P04608); test: competition; TR-FRET, 10-fold excess over Flag-ARM; settings: label: 5'-Cy5; hairpin with UCU bulge
T2 chain: GISYGRKKRRQRRRA

Flag-Tat (ARM) [3] = target: T3, Flag-Tat (ARM) (HIV-1 NL4-3, UniProt P04608); test: TR-FRET; up to 100 nM each; Eu-anti-Flag 5 nM; settings: tags: N-terminal FLAG; label: 5'-Cy5; hairpin with UCU bulge
T3 chain: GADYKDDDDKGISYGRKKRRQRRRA

Biotin-Tat (ARM) = target: T4, Biotin-Tat (ARM) (HIV-1 NL4-3, UniProt P04608); test: TR-FRET; 20 nM each; Eu-StAV; poorly competed by free ARM and L-22; settings: tags: N-terminal biotin; label: 5'-Cy5; hairpin with UCU bulge
T4 chain: Biotin-GISYGRKKRRQRRRA

Flag-Tat (ARM) [4] = target: T3, Flag-Tat (ARM); test: TR-FRET; 50 nM each; settings: tags: N-terminal FLAG; label: 5'-Cy5; hairpin without bulge

## Nc1ccc2oc(-c3cc(F)c(F)cc3Cl)nc2c1 [Hit T0516-4834]
HIV-1
  IC50: 200 nM

## GISYGRKKRRQRRRA [ARM]
[1]
  inhibition of TR-FRET signal, in words: insufficient inhibition
[2]; 500 nM competitor, control of primary screen
  inhibition of TR-FRET signal: ~ 70%
[2]; 10-fold excess competitor, 50 nM analytes
  TR-FRET signal in peptide/protein competition assay, in words: significantly decreased

## CC[C@H](C)[C@@H]1NC(=O)[C@H](CCCNC(=N)N)NC(=O)[C@H](CCCNC(=N)N)NC(=O)CNC(=O)[C@H](CCCCN)NC(=O)[C@H](CCCNC(=N)N)NC(=O)[C@H]([C@@H](C)O)NC(=O)[C@H](CCCNC(=N)N)NC(=O)[C@H](C(C)C)NC(=O)[C@H](CCCNC(=N)N)NC(=O)[C@@H]2CCCN2C(=O)[C@H]2CCCN2C(=O)[C@H]([C@@H](C)CC)NC(=O)[C@H](CCCNC(=N)N)NC1=O [Hit L-22] (cyclo(RVRTRKGRRIRI[dP]P))
[1]
  inhibition of TR-FRET signal, in words: insufficient inhibition
TAR RNA
  Kd: 30 nM
[2]; read-out: IC50 of ARM-TAR RNA interaction (TR-FRET competition), 50 nM Flag-ARM and 5′-Cy5-TAR RNA, inhibitor 0-100 μM
  IC50: 228 nM

## GGCCAGAUCUGAGCCUGGGAGCUCUCUGGCC [Cy5-TAR RNA (31 nt)]
L-22 cyclic peptide
  IC50: 228 nM
L-50 cyclic peptide
  IC50: 95.9 nM
LK3 peptide
  IC50: 67.8 nM
L-51 cyclic peptide
  IC50: 276 nM

## GGCCAGAUCUGAGCCUGGGAGCUCUCUGGCC (structured_RNA) [Cy5-TAR RNA (31 nt)]
Tat (ARM), tag-free
  binding result: binds
Flag-Tat (ARM) [3]
  binding signal: ~11 fold signal over background
Biotin-Tat (ARM)
  binding result: binds

## GGCCAGAGAGCCUGGGAGCUCUCUGGCC (structured_RNA) [Cy5-mt TAR RNA (28 nt, bulge-free)]
Flag-Tat (ARM) [4]
  binding result: no binding
